Tests used:
[1] = biological target: T1, LFA-1 (CD11a/CD18) on cells (human, UniProt P20701 26-1170; P05107 23-769); assay: cell adhesion to coated shICAM-R, peptide 1-2 mg/ml
T1 construct: whole, on cells; on SKW3, JY, HL-60 cells, neutrophils, or CHO/COS transfectants; also called CD18/CD11a

[2] = biological target: T1, LFA-1 (CD11a/CD18) on cells; assay: JY cell adhesion to plate-bound chimera
[3] = biological target: T1, LFA-1 (CD11a/CD18) on cells; assay: not described
VLA-4 (α4/β1) on cells = biological target: T2, VLA-4 (α4/β1) on cells (UniProt P13612 34-1032; P05556 21-798, limits assumed); assay: not described
T2 construct: whole, on cells; on Jurkat cells, T cells or COS transfectants

[4] = biological target: Mac-1 (CD11b/CD18) on cells (UniProt P11215 17-1152; P05107 23-769); assay: neutrophil adhesion
[5] = biological target: T1, LFA-1 (CD11a/CD18) on cells; assay: neutrophil adhesion
human ICAM-R [6] = biological target: T3, human ICAM-R (human, UniProt P32942 30-547); assay: cell-based or functional assay
T3 chain: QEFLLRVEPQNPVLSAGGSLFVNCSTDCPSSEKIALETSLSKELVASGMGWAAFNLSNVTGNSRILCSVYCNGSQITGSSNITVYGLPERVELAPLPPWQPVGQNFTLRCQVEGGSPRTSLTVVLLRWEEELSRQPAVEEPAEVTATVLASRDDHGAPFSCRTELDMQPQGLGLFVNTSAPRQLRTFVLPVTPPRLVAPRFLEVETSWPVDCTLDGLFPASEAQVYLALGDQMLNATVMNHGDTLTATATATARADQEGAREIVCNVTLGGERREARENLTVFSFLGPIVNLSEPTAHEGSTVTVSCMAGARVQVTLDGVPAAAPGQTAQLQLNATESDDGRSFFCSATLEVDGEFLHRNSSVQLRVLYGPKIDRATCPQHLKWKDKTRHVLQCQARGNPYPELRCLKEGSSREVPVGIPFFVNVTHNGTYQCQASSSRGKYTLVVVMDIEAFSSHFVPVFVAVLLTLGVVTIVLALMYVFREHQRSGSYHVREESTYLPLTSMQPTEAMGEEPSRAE

human ICAM-R [7] = biological target: T3, human ICAM-R; assay: FACS, 5 µg/ml
[8] = biological target: T4, chimeric Protein 3 (ICAM-R domains 1-3 / ICAM-1) (human, UniProt P05362 317-532); assay: FACS, 5 µg/ml
T4 construct: range 317-532; on COS cells; also called Protein number 3; RD1-3.1D4-5

human ICAM-1 = biological target: T5, human ICAM-1 (human, UniProt P05362 28-532); assay: FACS, 5 µg/ml
T5 construct: whole, on cells; on transfected L or COS cells

soluble human ICAM-R [9] = biological target: T6, soluble human ICAM-R (human, UniProt P32942 30-485); assay: ELISA on coated shICAM-R
T6 construct: baculovirus/Sf-9 product; also called shICAM-R; ICAM-Rt1
T6 chain: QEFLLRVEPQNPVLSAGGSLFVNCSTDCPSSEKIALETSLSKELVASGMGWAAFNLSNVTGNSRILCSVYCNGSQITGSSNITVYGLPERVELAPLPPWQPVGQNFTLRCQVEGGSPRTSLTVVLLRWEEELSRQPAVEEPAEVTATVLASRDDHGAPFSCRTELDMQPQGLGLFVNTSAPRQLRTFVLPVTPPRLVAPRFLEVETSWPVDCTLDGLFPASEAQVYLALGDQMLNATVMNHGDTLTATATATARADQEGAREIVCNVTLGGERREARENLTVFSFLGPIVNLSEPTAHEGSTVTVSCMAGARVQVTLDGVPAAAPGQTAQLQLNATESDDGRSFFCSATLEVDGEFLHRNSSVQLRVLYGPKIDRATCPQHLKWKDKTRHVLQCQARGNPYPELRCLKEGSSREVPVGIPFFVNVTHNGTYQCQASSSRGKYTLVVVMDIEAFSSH

soluble human ICAM-R [10] = biological target: T6, soluble human ICAM-R; assay: blocking of biotinylated murine ICR-8.1 (competitor) binding to ICAM-R

T1 sequence (P20701 26-1170, chain 1 of 2): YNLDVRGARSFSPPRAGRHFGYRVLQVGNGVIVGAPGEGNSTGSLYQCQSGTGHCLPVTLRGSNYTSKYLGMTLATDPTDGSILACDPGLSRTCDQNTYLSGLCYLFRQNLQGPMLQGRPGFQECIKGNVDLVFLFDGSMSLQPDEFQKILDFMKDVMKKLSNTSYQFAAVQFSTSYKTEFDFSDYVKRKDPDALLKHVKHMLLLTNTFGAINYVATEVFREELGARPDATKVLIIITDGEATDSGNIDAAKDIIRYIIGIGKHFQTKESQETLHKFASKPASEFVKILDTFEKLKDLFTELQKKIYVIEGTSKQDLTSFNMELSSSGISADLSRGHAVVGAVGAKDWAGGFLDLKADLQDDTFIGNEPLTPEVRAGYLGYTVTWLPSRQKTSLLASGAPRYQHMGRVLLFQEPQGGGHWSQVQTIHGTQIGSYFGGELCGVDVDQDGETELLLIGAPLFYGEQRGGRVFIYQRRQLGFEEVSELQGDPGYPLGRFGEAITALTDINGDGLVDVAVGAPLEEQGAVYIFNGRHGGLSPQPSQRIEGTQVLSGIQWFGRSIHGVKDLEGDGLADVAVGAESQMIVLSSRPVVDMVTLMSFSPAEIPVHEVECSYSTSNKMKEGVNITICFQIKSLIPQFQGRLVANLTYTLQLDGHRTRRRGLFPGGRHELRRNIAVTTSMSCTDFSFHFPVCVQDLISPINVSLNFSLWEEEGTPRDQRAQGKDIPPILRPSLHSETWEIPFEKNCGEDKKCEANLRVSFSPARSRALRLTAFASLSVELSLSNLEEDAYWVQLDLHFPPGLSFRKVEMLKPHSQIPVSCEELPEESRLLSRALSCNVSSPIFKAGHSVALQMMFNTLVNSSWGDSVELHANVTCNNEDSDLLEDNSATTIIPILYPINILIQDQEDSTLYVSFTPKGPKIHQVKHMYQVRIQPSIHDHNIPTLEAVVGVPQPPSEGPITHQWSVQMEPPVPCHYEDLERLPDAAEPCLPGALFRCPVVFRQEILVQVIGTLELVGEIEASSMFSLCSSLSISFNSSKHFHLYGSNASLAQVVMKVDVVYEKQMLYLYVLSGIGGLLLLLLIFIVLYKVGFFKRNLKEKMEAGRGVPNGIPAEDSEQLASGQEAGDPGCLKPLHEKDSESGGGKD
T1 sequence (P05107 23-769, chain 2 of 2): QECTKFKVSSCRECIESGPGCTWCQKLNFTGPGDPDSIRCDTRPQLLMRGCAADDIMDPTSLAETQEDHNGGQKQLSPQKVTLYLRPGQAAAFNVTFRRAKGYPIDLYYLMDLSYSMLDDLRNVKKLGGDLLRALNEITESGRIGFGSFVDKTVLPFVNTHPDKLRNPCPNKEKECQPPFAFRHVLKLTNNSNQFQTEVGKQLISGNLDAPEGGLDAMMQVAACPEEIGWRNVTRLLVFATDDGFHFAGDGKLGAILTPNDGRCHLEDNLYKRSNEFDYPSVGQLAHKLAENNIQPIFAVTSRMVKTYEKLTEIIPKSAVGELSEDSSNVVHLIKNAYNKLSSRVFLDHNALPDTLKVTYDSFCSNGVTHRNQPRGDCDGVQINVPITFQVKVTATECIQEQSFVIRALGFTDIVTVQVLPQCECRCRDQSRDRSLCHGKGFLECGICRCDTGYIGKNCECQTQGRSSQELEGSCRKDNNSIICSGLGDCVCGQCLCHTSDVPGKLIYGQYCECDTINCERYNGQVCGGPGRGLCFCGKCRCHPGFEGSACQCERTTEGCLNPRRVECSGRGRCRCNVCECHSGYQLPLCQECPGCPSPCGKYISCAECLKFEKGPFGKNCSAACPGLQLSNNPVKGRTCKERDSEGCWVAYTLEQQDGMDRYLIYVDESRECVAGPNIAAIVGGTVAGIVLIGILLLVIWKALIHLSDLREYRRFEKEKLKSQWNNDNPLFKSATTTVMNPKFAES
T5 sequence (P05362 28-532): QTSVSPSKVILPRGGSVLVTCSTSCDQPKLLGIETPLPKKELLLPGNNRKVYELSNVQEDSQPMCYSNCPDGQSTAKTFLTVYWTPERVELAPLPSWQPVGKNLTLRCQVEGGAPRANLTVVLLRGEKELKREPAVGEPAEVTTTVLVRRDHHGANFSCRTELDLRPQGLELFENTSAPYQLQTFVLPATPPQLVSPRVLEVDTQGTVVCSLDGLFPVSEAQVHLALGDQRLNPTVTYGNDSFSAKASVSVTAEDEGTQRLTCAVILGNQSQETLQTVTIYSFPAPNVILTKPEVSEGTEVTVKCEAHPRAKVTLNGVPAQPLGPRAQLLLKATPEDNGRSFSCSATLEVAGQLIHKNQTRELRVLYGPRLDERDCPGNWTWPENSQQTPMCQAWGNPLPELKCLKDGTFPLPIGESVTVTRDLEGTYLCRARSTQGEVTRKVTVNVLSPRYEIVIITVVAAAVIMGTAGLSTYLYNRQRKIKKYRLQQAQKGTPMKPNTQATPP

GERREA [ICAM-R peptide 271-276] was tested, and the “% Inhibition CD18-Dependent Binding (SKW3)” value [1] was 0%.

EKIALET [ICAM-R peptide 32-38] was tested, and the “% Inhibition CD18-Dependent Binding (SKW3)” value [1] was 0%.

B1: domain deletion ICAM-R/IgG chimera with ICAM-R domains 3, 4 and 5 (Fc fusion)
chain: VLPVTPPRLVAPRFLEVETSWPVDCTLDGLFPASEAQVYLALGDQMLNATVMNHGDTLTATATATARADQEGAREIVCNVTLGGERREARENLTVFSFLGPIVNLSEPTAHEGSTVTVSCMAGARVQVTLDGVPAAAPGQTAQLQLNATESDDGRSFFCSATLEVDGEFLHRNSSVQLRVLYGPKIDRATCPQHLKWKDKTRHVLQCQARGNPYPELRCLKEGSSREVPVGIPFFVNVTHNGTYQCQASSSRGKYTLVVVMDIEAFSSH
notes: not shown: human IgG1 hinge, CH2, CH3
B1: no binding [2].

B2: ICAM-R/IgG variant D231H-Ig (Fc fusion)
chain: QEFLLRVEPQNPVLSAGGSLFVNCSTDCPSSEKIALETSLSKELVASGMGWAAFNLSNVTGNSRILCSVYCNGSQITGSSNITVYGLPERVELAPLPPWQPVGQNFTLRCQVEGGSPRTSLTVVLLRWEEELSRQPAVEEPAEVTATVLASRDDHGAPFSCRTELDMQPQGLGLFVNTSAPRQLRTFVLPVTPPRLVAPRFLEVETSWPVDCTLDGLFPASEAQVYLALGHQMLNATVMNHGDTLTATATATARADQEGAREIVCNVTLGGERREARENLTVFSFLGPIVNLSEPTAHEGSTVTVSCMAGARVQVTLDGVPAAAPGQTAQLQLNATESDDGRSFFCSATLEVDGEFLHRNSSVQLRVLYGPKIDRATCPQHLKWKDKTRHVLQCQARGNPYPELRCLKEGSSREVPVGIPFFVNVTHNGTYQCQASSSRGKYTLVVVMDIEAFSSH
notes: as for B1
B2: binds [3]; binds (VLA-4 (α4/β1) on cells).

B3: ICAM-R/His fusion protein (receptor, not shown: small tags and cut ends)
chain: QEFLLRVEPQNPVLSAGGSLFVNCSTDCPSSEKIALETSLSKELVASGMGWAAFNLSNVTGNSRILCSVYCNGSQITGSSNITVYGLPERVELAPLPPWQPVGQNFTLRCQVEGGSPRTSLTVVLLRWEEELSRQPAVEEPAEVTATVLASRDDHGAPFSCRTELDMQPQGLGLFVNTSAPRQLRTFVLPVTPPRLVAPRFLEVETSWPVDCTLDGLFPASEAQVYLALGDQMLNATVMNHGDTLTATATATARADQEGAREIVCNVTLGGERREARENLTVFSFLGPIVNLSEPTAHEGSTVTVSCMAGARVQVTLDGVPAAAPGQTAQLQLNATESDDGRSFFCSATLEVDGEFLHRNSSVQLRVLYGPKIDRATCPQHLKWKDKTRHVLQCQARGNPYPELRCLKEGSSREVPVGIPFFVNVTHNGTYQCQASSSRGKYTLVVVMDIEAFSSH
notes: CHO product
B3: binds [4]; binds [5].

B4: ICAM-R/IgG chimera E37/A (Fc fusion)
chain: QEFLLRVEPQNPVLSAGGSLFVNCSTDCPSSEKIALATSLSKELVASGMGWAAFNLSNVTGNSRILCSVYCNGSQITGSSNITVYGLPERVELAPLPPWQPVGQNFTLRCQVEGGSPRTSLTVVLLRWEEELSRQPAVEEPAEVTATVLASRDDHGAPFSCRTELDMQPQGLGLFVNTSAPRQLRTFVLPVTPPRLVAPRFLEVETSWPVDCTLDGLFPASEAQVYLALGDQMLNATVMNHGDTLTATATATARADQEGAREIVCNVTLGGERREARENLTVFSFLGPIVNLSEPTAHEGSTVTVSCMAGARVQVTLDGVPAAAPGQTAQLQLNATESDDGRSFFCSATLEVDGEFLHRNSSVQLRVLYGPKIDRATCPQHLKWKDKTRHVLQCQARGNPYPELRCLKEGSSREVPVGIPFFVNVTHNGTYQCQASSSRGKYTLVVVMDIEAFSSH
notes: also called ICAM-R E37/A; not shown: human IgG1 hinge, CH2, CH3
B4: binds [4]; no binding [2].

B5: ICAM-R/IgG variant E37T-Ig (Fc fusion)
chain: QEFLLRVEPQNPVLSAGGSLFVNCSTDCPSSEKIALASSLSKELVASGMGWAAFNLSNVTGNSRILCSVYCNGSQITGSSNITVYGLPERVELAPLPPWQPVGQNFTLRCQVEGGSPRTSLTVVLLRWEEELSRQPAVEEPAEVTATVLASRDDHGAPFSCRTELDMQPQGLGLFVNTSAPRQLRTFVLPVTPPRLVAPRFLEVETSWPVDCTLDGLFPASEAQVYLALGDQMLNATVMNHGDTLTATATATARADQEGAREIVCNVTLGGERREARENLTVFSFLGPIVNLSEPTAHEGSTVTVSCMAGARVQVTLDGVPAAAPGQTAQLQLNATESDDGRSFFCSATLEVDGEFLHRNSSVQLRVLYGPKIDRATCPQHLKWKDKTRHVLQCQARGNPYPELRCLKEGSSREVPVGIPFFVNVTHNGTYQCQASSSRGKYTLVVVMDIEAFSSH
notes: as for B1
B5: no binding [3].

B6: ICR-8.1 (antibody, mouse IgG1, V domains shown)
VH: EIQLQQTGPELVKPGASVKISCKASGYSFTDCIILWVKQSHGKGLEWIGKINPYFGTTTYNLKFKGKATLTVDKSSSTAHMQLNSLTSEDSAVYYCARKEAYPDAMDYWGQGTSVTVSS
VL: DAVMTQTPLSLPVSLGDQASISCRSSQSLVHSNGDTYLHWYLQKPGQSPQLLIYKVSNRFSGVPDRFSGSGSGTDFTLKLSRVEAEDLGVYFCSQSTHVPYTFGGGTKLEIK
notes: murine IgG1, kappa; also called 46D7E; ATCC HB 11232
With B6 the “IC50 (µg/ml), inhibition of SEA-induced PBL proliferation by plate-bound antibody” value (human ICAM-R [6]) was 1 µg/mL, the “percent positive COS cell transfectants” value (human ICAM-R [7]) was 48.9% and the “percent positive COS cell transfectants” value [8] was 44.9%. For the same binder, the “percent positive COS cell transfectants” value (human ICAM-1) was 1.08%.

B7: ICR-8.1 miHuVHI/HuVK (antibody, human IgG4, V domains shown)
VH: QIQLVQSGAEVKKPGASVKVSCKASGYTFTDCIILWVRQAPGQGLEWMGKINPYFGTTTYAQKFQGRVTITADTSTSTAYMELSSLRSEDTAVYYCARKEAYPDAMDYWGQGTLVTVSS
VL: DIVMTQSPLSLPVTPGEPASISCRSSQSLVHSNGDTYLHWYLQKPGQSPQLLIYKVSNRFSGVPDRFSGSGSGTDFTLKISRVEAEDVGVYYCSQSTHVPYTFGQGTKVEIK
notes: human IgG4 and human kappa constant regions
For B7, the “fold improvement in binding over the other recombinant ICR-8.1 antibodies” value (soluble human ICAM-R [9]) was ~2 fold and the “fold less well in competition than murine ICR-8.1” value (soluble human ICAM-R [10]) was ~2 fold.

B8: ICR-8.1 miHuVHI/MuVK (antibody, human IgG4, V domains shown)
VH: QIQLVQSGAEVKKPGASVKVSCKASGYTFTDCIILWVRQAPGQGLEWMGKINPYFGTTTYAQKFQGRVTITADTSTSTAYMELSSLRSEDTAVYYCARKEAYPDAMDYWGQGTLVTVSS
VL: DAVMTQTPLSLPVSLGDQASISCRSSQSLVHSNGDTYLHWYLQKPGQSPQLLIYKVSNRFSGVPDRFSGSGSGTDFTLKLSRVEAEDLGVYFCSQSTHVPYTFGGGTKLEIK
notes: as for B7
For B8, the “fold improvement in binding over the other recombinant ICR-8.1 antibodies” value (soluble human ICAM-R [9]) was ~2 fold and the “fold less well in competition than murine ICR-8.1” value (soluble human ICAM-R [10]) was ~2 fold.

In the case of DGQST [ICAM-1 peptide 70-74 (DGQST)], the “% Inhibition CD18-Dependent Binding (SKW3)” value [1] is reported as 0%.

B9: ICR-1.1 antibody with HuVK (hybrid) (antibody, human IgG4, V domains shown)
VH: QVQLQQSGAELAKPGASVKMSCKASGYTFTVYWMHWVKQRPGQGLEWIGYINPNTDYTEYNQRFQDKATLTADKSSSTAYMQLSSLTSEDSAVYYCARWGGNSYGLDYWGQGTSVTVSS
VL: DIQMTQSPSSLSASVGDRVTITCSASSSVSYIYWYQQKPGKAPKLLIYLTSNLASGVPSRFSGSGSGTDFTLTISSLQPEDFATYYCQQWKSIPLTFGQGTKLEIK
notes: human IgG4 and human kappa constant regions; also called HuVK version
With B9 the “fold deficit in binding against the murine progenitor chain” value (soluble human ICAM-R [9]) was 2 fold.

GDQML [ICAM-R peptide 230-234 (GDQML)] was tested, and the “% Inhibition CD18-Dependent Binding (SKW3)” value [1] was 0%.

— patent US20010029293A1 (ICOS, published 2001)
